Experimental data as given in patent US20070160576A1, “IL-17A/F heterologous polypeptides and therapeutic uses thereof” (Genentech, Inc., priority 2001, published 2007).

B1: PRO21175 (IL-17D ligand) (ligand, UniProt Q8TAD2 16-202, looked up)
chain: AGAPRAGRRPARPRGCADRPEELLEQLYGRLAAGVLSAFHHTLQLGPREQARNASCPAGGRPADRRFRPPTNLRSVSPWAYRISYDPARYPRYLPEAYCLCRGCLTGLFGEEDVRFRSAPVYMPTVVLRRTPACAGGRSVYTEAYVTIPVGCTCVPEPEKDADSINSSIDKQGAKLLLGPNDAPAGP
B2: IL-17F: human IL-17F ligand, SEQ ID NO:4 (protein, listed as Homo sapiens)
chain: MTVKTLHGPAMVKYLLLSILGLAFLSEAAARKIPKVGHTFFQKPESCPPVPGGSMKLDIGIINENQRVSMSRNIESRSTSPWNYTVTWDPNRYPSEVVQAQCRNLGCINAQGKEDISMNSVPIQQETLVVRRKHQGCSVSFQLEKVLVTVGCTCVTPVIHHVQ
B3: PRO1122 (IL-17C ligand) (ligand, UniProt Q9P0M4 19-197, looked up)
chain: HHDPSLRGHPHSHGTPHCYSAEELPLGQAPPHLLARGAKWGQALPVALVSSLEAASHRGRHERPSATTQCPVLRPEEVLEADTHQRSISPWRYRVDTDEDRYPQKLAFAECLCRGCIDARTGRETAALNSVRLLQSLLVLRRRPCSRDGSGLPTPGAFAFHTEFIHVPVGCTCVLPRSV

What was measured:
[1] = target: T1, PRO20040 (human IL-17RH2 receptor) (human, UniProt Q8NAC3-3 21-452); test: receptor/ligand screen, FIG. 14
T1 sequence (looked up): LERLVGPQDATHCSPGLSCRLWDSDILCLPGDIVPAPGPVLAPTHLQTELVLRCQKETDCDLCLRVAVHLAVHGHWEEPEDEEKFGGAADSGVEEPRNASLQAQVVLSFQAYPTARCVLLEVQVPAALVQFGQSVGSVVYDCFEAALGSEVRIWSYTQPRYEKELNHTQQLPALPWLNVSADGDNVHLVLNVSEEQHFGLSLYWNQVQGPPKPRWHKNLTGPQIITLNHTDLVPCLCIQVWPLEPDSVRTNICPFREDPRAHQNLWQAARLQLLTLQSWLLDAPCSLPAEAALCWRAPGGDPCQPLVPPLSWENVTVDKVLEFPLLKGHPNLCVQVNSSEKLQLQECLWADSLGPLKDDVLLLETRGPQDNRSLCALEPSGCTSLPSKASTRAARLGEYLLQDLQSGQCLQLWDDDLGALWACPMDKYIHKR
Description: (§1) A PRO polypeptide of the present invention suspected of being a ligand for a receptor is expressed as a fusion protein containing the Fc domain of human IgG (an immunoadhesin). Receptor-ligand binding is detected by allowing interaction of the immunoadhesin polypeptide with cells (e.g. Cos cells) expressing candidate PRO polypeptide receptors and visualization of bound immunoadhesin with fluorescent reagents directed toward the Fc fusion domain and examination by microscope. Cells expressing candidate receptors are produced by transient transfection, in parallel, of defined subsets of a library of cDNA expression vectors encoding PRO polypeptides that may function as receptor molecules. Cells are then incubated for 1 hour in the presence of the PRO polypeptide immunoadhesin being tested for possible receptor binding. The cells are then washed and fixed with paraformaldehyde. The cells are then incubated with fluorescent conjugated antibody directed against the Fc portion of the PRO polypeptide immunoadhesin (e.g. FITC conjugated goat anti-human-Fc antibody). The cells are then washed again and examined by microscope. A positive interaction is judged by the presence of fluorescent labeling of cells transfected with cDNA encoding a particular PRO polypeptide receptor or pool of receptors and an absence of similar fluorescent labeling of similarly prepared cells that have been transfected with other cDNA or pools of cDNA. If a defined pool of cDNA expression vectors is judged to be positive for interaction with a PRO polypeptide immunoadhesin, the individual cDNA species that comprise the pool are tested individually (the pool is “broken down”) to determine the specific cDNA that encodes a receptor able to interact with the PRO polypeptide immunoadhesin.
(§2) In another embodiment of this assay, an epitope-tagged potential ligand PRO polypeptide (e.g., 8 histidine “His” tag) is allowed to interact with a panel of potential receptor PRO polypeptide molecules that have been expressed as fusions with the Fc domain of human IgG (immunoadhesins). Following a 1 hour co-incubation with the epitope tagged PRO polypeptide, the candidate receptors are each immunoprecipitated with protein A beads and the beads are washed. Potential ligand interaction is determined by Western blot analysis of the immunoprecipitated complexes with antibody directed towards the epitope tag.

[2] = target: T2, PRO5801 (human IL-17RH1 receptor) as tested in the receptor/ligand screen (human, UniProt Q9NRM6 18-292, limits assumed); test: receptor/ligand screen, FIG. 14
T2 sequence (looked up): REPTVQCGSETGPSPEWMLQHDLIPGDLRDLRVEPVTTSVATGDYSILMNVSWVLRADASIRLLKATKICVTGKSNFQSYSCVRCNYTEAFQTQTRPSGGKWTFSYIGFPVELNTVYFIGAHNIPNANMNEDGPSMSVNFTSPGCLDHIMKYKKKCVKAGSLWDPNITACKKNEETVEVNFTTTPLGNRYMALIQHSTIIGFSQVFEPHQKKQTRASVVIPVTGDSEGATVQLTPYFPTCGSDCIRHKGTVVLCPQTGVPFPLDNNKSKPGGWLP
Description: as §1, §2

IL-17R = target: T3, IL-17R (Homo sapiens, UniProt Q96F46); test: SPR (BIAcore) binding measurements; settings: IL-17R up to 1 ┘M
T3 construct: the extracellular domains (ECDs) of either of the two receptors IL-17R (designated PRO1) and IL-17RH1 (PRO5801)
Protocol: (§3) The kinetics and affinity of IL-17, IL-17E (PRO10272), or IL-17F (PRO20110) binding to IL-17R or IL-17RH1 (PRO5801) were determined by SPR measurements on a Pharmacia BIAcore 1000 instrument (Phamacia Biosensor, Piscataway N.J.). IL-17 ligand or receptor was immobilized onto a flow cell of a CM5 sensor chip via random coupling to amino groups, N-hydroxysuccinimide chemistry, by using a protocol developed by the manufacturer. An immobilization level of about 500 resonance units (RU) was obtained for IL-17R, IL-17RH1, and IL-17F, whereas IL-17 and IL-17E immobilization levels were 1200 and 1500 RU, respectively. A strong signal was obtained for IL-17R binding to immobilized IL-17. […] After blocking unreacted sites with ethanolamine, binding measurements were performed using a flow rate of 25 ┘L/min. Sensorgrams-were obtained for a series of six, two-fold serially diluted protein solutions. The highest concentration used was 1000 or 500 nM protein and the solutions were prepared in the running buffer, PBS containing 0.05% Tween-20. The sensor chip surface was regenerated between binding cycles by injection of a 25 ┘L aliquot of 0.1 M acetic acid, 0.2 M NaCl, pH 3 to elute non-covalent bound protein. Sensorgrams were evaluated according to a 1:1 binding model by non-linear regression analysis using software supplied by the manufacturer. In separate experiments to measure competition between IL-17 variants for binding receptors, a fixed concentration of receptor was incubated with a varied concentration of IL-17 protein followed by injection of this mixture onto a flow cell having immobilized IL-17 protein. The amount of bound receptor was determined from the resonance signal obtained after completion of the association phase.

IL-17RH1 (PRO5801) = target: T4, IL-17RH1 (PRO5801) (Homo sapiens, UniProt Q9NRM6); test: SPR (BIAcore) binding measurements; settings: IL-17RH1 up to 0.5 ┘M
T4 construct: the extracellular domains (ECDs) of either of the two receptors IL-17R (designated PRO1) and IL-17RH1 (PRO5801)
T4 sequence (Q9NRM6 18-292 limits assumed): T2 sequence (looked up)
Protocol: as §3

IL-17RH1 = target: T5, IL-17RH1 (Homo sapiens, UniProt Q9NRM6); test: SPR competition for receptor binding to immobilized IL-17E; settings: IL-17RH1 31 nM; IL-17F at 1.3 ┘M
T5 construct: the extracellular domains (ECDs) of either of the two receptors IL-17R (designated PRO1) and IL-17RH1 (PRO5801)
T5 sequence (Q9NRM6 18-292 limits assumed): T2 sequence (looked up)
Protocol: as §3, with “The sensor chip surface was regenerated between binding cycles by injection of a 25 ┘L aliquot of 0.1 M acetic acid, 0.2 M NaCl, pH 3 to elute non-covalent bound protein.” left out, “In separate experiments to measure competition between IL-17 variants for binding receptors, a fixed concentration of receptor was incubated with a varied concentration of IL-17 protein followed by injection of this mixture onto a flow cell having immobilized IL-17 protein.” left out, “phase. […]” for “phase.”

Molecule	binding result [1]	binding result [2]	binding of IL-17R to immobilized IL-17F (IL-17R)	binding of IL-17RH1 to immobilized IL-17F (IL-17RH1 (PRO5801))	competition for binding of IL-17RH1 to immobilized IL-17E (IL-17RH1)
B1	no binding	no binding			
B2			no binding	no binding	could not block binding
B3	no binding	no binding			
